The text below walks through data of article PMC12784346, “Paratope mapping of tilvestamab, an anti-AXL function-blocking antibody, using high-throughput bacterial expression of secreted scFv-osmY fusion proteins” (Bioscience Reports, 2025).

Sequences and labels used below:
B1: parental tilvestamab scFv-osmY fusion protein (scFv, V domains shown)
VH: EVQLVESGGGLVQPGGSLRLSCAASGYSFTDFYINWVRQAPGKGLEWVARIFPGGDNTYYNEKFKGRFTLSADTSKSTAYLQMNSLRAEDTAVYYCARRGLYYAMDYWGQGTLVTVSS
VL: DIQMTQSPSSLSASVGDRVTITCRSSQSLVHSNGIPYLHWYQQKPGKAPKLLIYRVSNRFSGVPSRFSGSGSGTDFTLTISSLQPEDFATYYCSQGTHVPPTFGQGTKVEIK
notes: VH of tilvestamab (BGB149); numbers count on: the scFv-osmY fusion protein; linker between VH and VL, adapted from the vector pOPE101; VL of tilvestamab (BGB149); About 52 kDa; vector pET-22b(+); also called parental scFv-osmY; parental scFv; source: E. coli T7 expression strain, secreted, culture supernatant used directly; not shown: His6, C-terminal, kept
B2: tilvestamab scFv-osmY F33A (scFv, V domains shown)
VH: B1 VH with F32A
VL: B1 VL
notes: VH of tilvestamab, as the VH of m1; numbers count on: the scFv-osmY fusion protein; linker; VL of tilvestamab, as the VL of m1; source: E. coli T7 expression strain, secreted, culture supernatant used directly; not shown: His6, C-terminal, kept
B3: tilvestamab scFv-osmY N195A (scFv, V domains shown)
VH: B1 VH
VL: B1 VL with N58A
notes: VH of tilvestamab, as the VH of m1; linker; VL of tilvestamab, as the VL of m1; numbers count on: the scFv-osmY fusion protein; source: E. coli T7 expression strain, secreted, culture supernatant used directly; not shown: His6, C-terminal, kept
B4: tilvestamab scFv-osmY I35A (scFv, V domains shown)
VH: B1 VH with I34A
VL: B1 VL
notes: as for B2
B5: tilvestamab scFv-osmY L102T (scFv, V domains shown)
VH: B1 VH with L101T
VL: B1 VL
notes: as for B2
B6: tilvestamab scFv-osmY F33T (scFv, V domains shown)
VH: B1 VH with F32T
VL: B1 VL
notes: as for B2
B7: tilvestamab scFv-osmY L102Y (scFv, V domains shown)
VH: B1 VH with L101Y
VL: B1 VL
notes: as for B2
B8: tilvestamab scFv-osmY F53A (scFv, V domains shown)
VH: B1 VH with F52A
VL: B1 VL
notes: as for B2
B9: tilvestamab scFv-osmY L102S (scFv, V domains shown)
VH: B1 VH with L101S
VL: B1 VL
notes: as for B2
B10: tilvestamab scFv-osmY F33Y (scFv, V domains shown)
VH: B1 VH with F32Y
VL: B1 VL
notes: as for B2
B11: tilvestamab scFv-osmY M106A (scFv, V domains shown)
VH: B1 VH with M105A
VL: B1 VL
notes: as for B2
B12: tilvestamab scFv-osmY F33S (scFv, V domains shown)
VH: B1 VH with F32S
VL: B1 VL
notes: as for B2
B13: tilvestamab scFv-osmY G233S (scFv, V domains shown)
VH: B1 VH
VL: B1 VL with G96S
notes: as for B3
B14: tilvestamab scFv-osmY P238A (scFv, V domains shown)
VH: B1 VH
VL: B1 VL with P101A
notes: as for B3
B15: tilvestamab scFv-osmY D32A (scFv, V domains shown)
VH: B1 VH with D31A
VL: B1 VL
notes: as for B2
B16: tilvestamab scFv-osmY Y191A (scFv, V domains shown)
VH: B1 VH
VL: B1 VL with Y54A
notes: as for B3
B17: tilvestamab scFv-osmY Y103S (scFv, V domains shown)
VH: B1 VH with Y102S
VL: B1 VL
notes: as for B2
B18: tilvestamab scFv-osmY Y103A (scFv, V domains shown)
VH: B1 VH with Y102A
VL: B1 VL
notes: as for B2
B19: tilvestamab scFv-osmY L102A (scFv, V domains shown)
VH: B1 VH with L101A
VL: B1 VL
notes: as for B2
B20: tilvestamab scFv-osmY Y108A (scFv, V domains shown)
VH: B1 VH with Y107A
VL: B1 VL
notes: as for B2
B21: tilvestamab scFv-osmY G101A (scFv, V domains shown)
VH: B1 VH with G100A
VL: B1 VL
notes: as for B2
B22: tilvestamab scFv-osmY G233A (scFv, V domains shown)
VH: B1 VH
VL: B1 VL with G96A
notes: as for B3
B23: tilvestamab scFv-osmY T31A (scFv, V domains shown)
VH: B1 VH with T30A
VL: B1 VL
notes: as for B2

Substitutions are numbered along the chain they refer to.

The target of the assay is T1, AXL Ig1 domain fused to human Fc (Homo sapiens, UniProt P30530).
T1 construct: AXL receptor tyrosine kinase, human, Ig1 domain of the extracellular domain; Construct limits and production are in the Supplementary Information; also called AXL Ig1-Fc; AXL-Ig1-Fc
Put plainly: BLI; Octet RED96; His-tagged scFv-osmY captured on Ni-NTA tips from undiluted bacterial supernatant (600 s); AXL Ig1 domain Fc 5.6 ug/ml in kinetic buffer (0.02% Tween 20, 0.05% sodium azide, 0.1% BSA in PBS) as analyte; rat Axl-Fc as control; traces scored by eye (normal, fast, very fast, weak, weak fast, none). Conditions: one partner purified. For orientation: BLI is a label-free optical method that tracks binding on a fibre tip over time.
Regarding B1, the binding result was “binds”. For the molecule B2, the binding result was “binds”.

For B3, the binding result was “binds”. As to B4, the binding result is reported as “binds”. In the case of B5 it was “binds”; in that of B6, “binds”; in that of B7, “binds”. Regarding B8, the binding result was “binds”. The value for B9 was “binds”. The value for B10 was “binds”; that for B11 was “binds”. As to B12, the binding result is recorded as “binds”. As to B13, the binding result is “binds”. The value for B14 was “binds”. For B15, the binding result was “binds”. Consider B16, for which the binding result is “binds”. For the molecule B17, the binding result is on record as “binds”. For B18, the binding result is recorded as “binds”.

In the case of B19, the binding result is on record as “binds”.

As to B20, the binding result is “binds”. The value for B21 was “binds”; that for B22 was “binds”. Take B23: the binding result was “binds”.
